Measured values reported in patent US20110142830A1.

Target: sSortilin, Q99523
Assay: SPR
Settings: modification not given

Chain of sSortilin, Q99523 (Q99523 78-755): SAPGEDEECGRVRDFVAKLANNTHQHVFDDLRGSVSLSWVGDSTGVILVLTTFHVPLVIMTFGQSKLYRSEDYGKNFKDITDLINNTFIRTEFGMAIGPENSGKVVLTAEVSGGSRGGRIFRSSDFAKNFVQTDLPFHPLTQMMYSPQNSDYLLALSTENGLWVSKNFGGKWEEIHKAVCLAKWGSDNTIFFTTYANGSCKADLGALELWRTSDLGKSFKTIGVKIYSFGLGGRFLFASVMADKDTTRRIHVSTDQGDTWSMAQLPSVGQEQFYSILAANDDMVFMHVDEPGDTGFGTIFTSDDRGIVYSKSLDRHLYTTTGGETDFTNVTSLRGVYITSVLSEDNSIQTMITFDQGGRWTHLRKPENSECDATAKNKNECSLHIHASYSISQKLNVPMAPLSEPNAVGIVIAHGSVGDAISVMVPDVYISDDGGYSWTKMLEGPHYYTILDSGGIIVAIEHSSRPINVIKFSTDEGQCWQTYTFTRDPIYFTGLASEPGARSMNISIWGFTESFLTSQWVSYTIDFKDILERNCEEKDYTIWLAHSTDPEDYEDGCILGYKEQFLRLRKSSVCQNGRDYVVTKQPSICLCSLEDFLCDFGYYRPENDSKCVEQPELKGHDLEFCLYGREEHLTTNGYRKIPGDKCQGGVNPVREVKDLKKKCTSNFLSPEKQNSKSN

EC50: 460 nM
Binder: RRPYIL [NT8-13]
